According to patent US5912183A, “Peptide inhibitors of mitogenesis and motogenesis” (Pharmacia & Upjohn S.p.A., priority 1993, dated 1999):
Residues, ends and D or L forms follow the SMILES beside them.

Legend:
[1] = target: T1, GST-SH2 domain of Shc (Homo sapiens, UniProt P29353); assay: BIAcore binding of Shc SH2 domain to immobilised phosphopeptides; details: biosensor; for Affinity constant, ratio between dissociation rate (Kdiss) and association rate constants (Kass): Shc GST-SH2; for Binding of Shc SH2 domain to immobilised phosphopeptide: avidin-immobilized biotinylated phosphopeptide
T1 construct: using the Shc SH2 domain, expressed in bacteria as a GST-fusion protein; made in house; host or cells: bacteria
T1 sequence (P29353 488-579 limits assumed): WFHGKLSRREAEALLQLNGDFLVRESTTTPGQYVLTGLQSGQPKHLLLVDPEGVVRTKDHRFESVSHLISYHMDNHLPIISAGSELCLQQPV
Procedure: FIG. 13. […] The same concentration of Shc-SH2 was injected over two biosensor surfaces on which two phosphopeptides had been immobilised. Y1356P is derived from the sequence VNATY^1356 VNVK (SEQ. ID NO: 28) of the receptor tail; Y317P is derived from the sequence DDPSY^317 VNVQ (SEQ. ID NO: 27). Note that both peptides contain the same core (YVNV) but (SEQ. ID NO: 3) different upstream sequences. The initial rapid increase in the response is due to the "bulk effect" of the injected solution.
In vitro binding studies using GST-fusion protein. The region of the Grb2 cDNA corresponding to its SH2 domain (from nucleotide position 256 to nucleotide position 551) was isolated using polymerase chain reaction (PCR) and cloned into the BamHI-EcoRI sites of the bacterial expression plasmid pGEX-2T (GST-Grb2). Cultures of bacteria expressing GST, GST-Grb2 or GST-Shc (Segatto et al., Oncogene 2105-2112 (1993)) were grown for 3-4 hours at 37° C. in LB medium containing 1 mM IPTG. Bacteria were centrifuged, resuspended in 1/100 volume of ice-cold PY buffer, without Triton™ and lysed by sonication. After adding Triton X-100 to 1%, lysates were clarified by centrifugation. Recombinant proteins were purified onto glutathione Sepharose™ (Pharmacia) and used as such for binding assays. For each reaction, about 5 μg of GST, GST-Grb2 or GST-Shc bound to glutathione Seharose was incubated for 2 hrs. at 4° C. with […] of appropriate cell lysate made in PY buffer. Protein complexes were washed 5 times in ice cold PY buffer, eluted and denatured by heating at 95° C. for 3 min in Laemmli buffer, resolved on SDS-PAGE and analyzed by immunoblot.
The basic principles of operation as well as the methodology for obtaining kinetic measurements of SH2 domain interactions using the BIAcore instrument (Pharmacia) have been previously described in detail (Panayotou et al., Mol. Cell. Biol. 13: 3567-3576 (1993), Ponzetto et al., Mol. Cell. Biol. 13: 4600-4608 (1993)). Purified GST-SH2 domains or intact proteins were desalted in BIAcore running buffer (20 mM Hepes, pH 7.4, 150 mM NaCl, 3.4 mM EDTA, 0.005% Tween 20 and 4 mM DTT) and injected over avidin-immobilized, biotinylated phosphopeptides. The amount of phosphopeptides immobilized was normalized by measuring the binding of anti-phosphotyrosine antibodies. Association was measured over a range of protein concentrations and dissociation of bound material was allowed to occur either in buffer flow or upon injection of 20 μM competing, non-biotinylated phosphopetide. Peptide and protein concentrations were calculated by amino acid analysis on an Applied Biosystem amino acid analyzer.
The direct interaction between the SH2 domain of Shc and phosphotyrosine Y^1349 or Y^1356 was confirmed by real-time Biosensor analysis (Panayotou et al., ibid; Felder et al., Mol. Cell. Biol. 13: 1449-1455 (1993)).
The Shc sequence Y^317 VNV (SEQ. ID NO: 3) is identical to one of the two Shc binding sites present in the SF/HGF receptor (FIG. 8). […] The biosensor was used to compare binding of the Shc SH2 domain to the phosphopeptide DDPSY^317 VNVQ (SEQ. ID NO: 27), present on the Shc molecule, and to the phosphopeptide VNATY^1356 VNVK (SEQ. ID NO: 28), present on the SF/HGF receptor. […] Thus Shc-Shc association is not favoured in vivo, and the Shc phosphotyrosine residue Y^317 is available to bind other molecules, rather than to mediate the formation of concatamers.

[2] = target: T2, binding of p85 to HGF/SF receptor (Bos taurus, UniProt P23727); assay: Competition of phosphopeptides with p85 for association with immobilized recombinant HGF/SF receptor (in vitro kinase assay readout); set-up: species or system human; details: phosphopeptide 10 μM; p85 from Sf9 lysates; FIG. 1
T2 construct: made in house; host or cells: Sf9 insect cells (baculovirus), for both p85 and the receptor
T2 sequence (P23727 whole entry): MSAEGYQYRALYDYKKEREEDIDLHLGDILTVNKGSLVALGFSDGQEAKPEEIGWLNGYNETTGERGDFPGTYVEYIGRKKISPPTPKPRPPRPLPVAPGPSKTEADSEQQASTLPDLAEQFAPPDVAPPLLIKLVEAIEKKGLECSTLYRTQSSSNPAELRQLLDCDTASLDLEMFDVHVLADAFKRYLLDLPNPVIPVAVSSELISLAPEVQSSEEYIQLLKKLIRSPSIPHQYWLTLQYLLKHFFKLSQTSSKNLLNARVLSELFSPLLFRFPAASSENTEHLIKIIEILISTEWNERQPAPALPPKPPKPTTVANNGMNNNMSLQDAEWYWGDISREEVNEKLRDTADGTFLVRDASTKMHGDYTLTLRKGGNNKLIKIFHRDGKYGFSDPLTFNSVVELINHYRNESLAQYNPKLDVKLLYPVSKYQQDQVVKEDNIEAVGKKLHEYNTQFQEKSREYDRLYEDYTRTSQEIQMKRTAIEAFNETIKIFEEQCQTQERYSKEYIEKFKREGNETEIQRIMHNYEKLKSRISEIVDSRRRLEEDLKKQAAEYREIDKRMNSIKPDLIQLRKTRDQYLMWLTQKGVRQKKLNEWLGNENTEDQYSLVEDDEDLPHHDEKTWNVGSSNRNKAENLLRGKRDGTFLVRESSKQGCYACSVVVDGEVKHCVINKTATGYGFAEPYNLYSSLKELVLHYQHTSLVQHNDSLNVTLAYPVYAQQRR
Procedure: FIG. 1. Inhibition of binding of p85 to HGF/SF receptor by tyrosine-phosphorylated peptides. Recombinant HGF/SF receptor was purified by immunoprecipitation from baculovirus-infected Sf9 cells using a rabbit polyclonal antiserum and phosphorylated with cold ATP. Lysates of Sf9 cells expressing p85 were pre-incubated with each of the phosphopeptides (10 μM). The lysates were then allowed to associate with immobilized recombinant HGF/SF receptors. Following association the complex was washed and receptor-bound p85 was detected by an in vitro kinase assay, as described in Materials and Methods of Example 4. The phosphopeptides are identified by the number of the amino terminal tyrosine.
FIG. 2. Inhibition of binding of p85 to HGF/SF receptor with different concentrations of tyrosine-phosphorylated peptides. The phosphopeptides which efficiently out-competed p85 binding to the HGF/SF receptor (FIG. 1) were used at increasing concentrations (10 nM, 100 nM, 1 μM from left to right) to define their relative affinities for p85. Conditions of the experiment were as in FIG. 1. Phosphopeptide 1365 was used as a negative control for p85 interaction.
In vitro association experiments. Sf9 cells expressing the recombinant HGF/SF receptor (approximately 4×10^6 cells/point) were lysed 36 hours after infection in buffer A (10 mM Tris-HCl buffer pH 7.5, 10% glycerol, 1% Triton X-100, 150 mM NaCl, 5 mM EDTA), supplemented with 0.2 mM phenyl-methylsulfonyl fluoride, 1 μg/ml leupeptin, 0.1 TIU/ml aprotinin and 1 μg/ml pepstatin. Lysates were clarified at 15,000×g at 4° C. for 15 minutes and the supernatants immunoprecipitated after 2 hours incubation with anti-Met antibodies coupled to Protein A-Sepharose. Immunocomplexes were washed three times with buffer A, once with buffer B (10 mM Tris-HCl pH 7.4, 100 mM NaCl, 1 mM EDTA) and once with buffer C (25 mM 4-(2-hydroxyethyl)-1-piperazine-ethanesulfonic acid (HEPES) buffer pH 7.2, 100 mM NaCl, 5 mM MgCl2). Samples were pre-phosphorylated by incubation for 15 minutes at 25° C. in buffer C with 10 μM unlabelled ATP and then washed three times with cold buffer A supplemented with 1 mM sodium ortho-vanadate. Association between the immobilized receptor and the baculovirus-expressed p85 was carried out as previously described (Bardelli, A., et al., Oncogene 7: 1973-1978 (1992)). For the association experiments with the PI 3-kinase holoenzyme three days serum-starved A549 cells (approx. 2×10^6 cells/point) were used as a source of PI 3-kinase. A549 cells were Dounce-homogenized in MOPS buffer (20 mM 3-(N-morpholino)propanesulfonic acid) (pH 7.5), 1 mM MgCl2, 0.1 mM EDTA, 200 mM sucrose, 1 mM sodium ortho-vanadate), supplemented with 0.2 mM phenylmethylsulfonyl fluoride, 1 μg/ml leupeptin, 0.1 TIU/ml aprotinin and 1 μg/ml pepstatin. Homogenates were centrifuged at 100,000×g for 20 minutes at 4° C. When checking for the ability of phosphopeptides to block the association with the receptor, cell lysates were pre-incubated with the phosphopeptides for 1 hour at 4° C. prior to incubation with the immobilized recombinant HGF/SF receptor. Following association, immunocomplexes were washed three times with buffer A, twice with buffer D (0.5M LiCl, 100 mM Tris-HCl pH 7.6), and twice with buffer B.
The presence of the p85 subunit of the PI 3-kinase in the receptor immunoprecipitate was determined by: i) labelling of the receptor and associated proteins with [γ-^32 P]ATP by in vitro kinase assay; ii) Western immunoblotting; iii) PI 3-kinase activity assay.
In vitro kinase assay. Receptor-associated proteins were labelled in 20 μl of buffer C, in the presence of 10 μCi [γ-^32 P]ATP (specific activity 7,000 Ci/Mm; Amersham) at 25° C. for 15 minutes. The reaction was stopped by adding 1 ml of ice-cold Buffer A without protease inhibitors. Samples were washed three times with cold buffer A. The labelled immunocomplexes were eluted from Protein A-Sepharose in boiling Laemmli buffer. […]

Compound | Affinity constant, ratio between dissociation rate (Kdiss) and association rate constants (Kass) [1] | Inhibition of binding of p85 to HGF/SF receptor [2] | Binding of Shc SH2 domain to immobilised phosphopeptide [1] | Binding of Shc SH2 domain to immobilised phosphopeptide ([1]; listed as Y1356P)
H-Ile-Gly-Glu-His-Tyr*-Val-His-Val-Asn-OH (H-IGEHYVHVN-OH; not fully specified (residue 5); also: Tyr5 (Y*) may be phosphorylated or unphosphorylated, not settled) [IGEHY^1349* VHVN] | too high to be exactly determined |  |  | 
CC(C)C[C@H](NC(=O)[C@@H]1CCCN1C(=O)[C@H](CC(=O)O)NC(=O)[C@@H]1CCCN1C(=O)[C@H](CS)NC(=O)[C@@H](N)Cc1ccc(OP(=O)(O)O)cc1)C(=O)N[C@@H](Cc1ccc(O)cc1)C(=O)N[C@@H](CCC(=O)O)C(=O)O [H-Tyr*-Cys-Pro-Asp-Pro-Leu-Tyr-Glu-OH] (HELM PEPTIDE1{[N[C@@H](Cc1ccc(OP(=O)(O)O)cc1)C(=O)[*:2]].C.P.D.P.L.Y.E}$$$$V2.0) |  | only partially effective |  | 
H-Val-Asn-Ala-Thr-Tyr*-Val-Asn-Val-Lys-OH (H-VNATYVNVK-OH; not fully specified (residue 5); also: Tyr5 (Y*) may be phosphorylated or unphosphorylated, not settled) [VNATY^1356* VNVK] | too high to be exactly determined |  | specifically bound | binds to the docking site of the SF/HGF receptor
